According to article PMC3870462 (Chemistry & biology, 2013):
Like-named read-outs stand apart in the source and are kept apart here.

Columns and labels:
[1] = biological target: CurK ACP-dd E2224R (Moorea producens); experiment: fluorescence polarisation
[2] = biological target: CurG ACP-dd (Moorea producens); experiment: fluorescence polarisation
[3] = biological target: CurK ACP-dd (Moorea producens); experiment: fluorescence polarisation
[4] = biological target: Avitag-CurG ACP-dd (Moorea producens); experiment: BLI
[5] = biological target: CurK ACP-dd E2224R (Moorea producens); experiment: fluorescence polarisation; remark: listed apart in the source
[6] = biological target: CurH ACP-dd (Moorea producens); experiment: fluorescence polarisation
[7] = biological target: CurI dd-KS-AT dimer (Moorea producens); experiment: SEC
[8] = biological target: CurK-CurL ^ACPddK-G3SG3S-ddL^KS (Moorea producens)
[9] = biological target: CurL dd^KS (Moorea producens); experiment: crystal structure
[10] = biological target: CurL ACP-dd (Moorea producens); experiment: fluorescence polarisation
[11] = biological target: PikAIIID-^ACPddG (not stated | Moorea producens)
[12] = biological target: the molecule itself
crystal structure = biological target: the molecule itself; experiment: crystal structure

Molecule CurH dd-KS-AT (domain or fragment) has a Kd [1] of 9.2 µM, a Kd [2] of 15.7 µM and a Kd [3] of 23.7 µM. It also gave a Kd [4] of 16.5 µM and a Kd [5] of 10 µM.

With “CurH dd-KS-AT lacking helix αA and the dd^KS loop (domain or fragment)” the Kd [2] was 117 µM.

Work on CurI dd-KS-AT (domain or fragment) yielded a Kd [6] of 20.5 µM.

“CurI dd-KS-AT dimer (domain or fragment)” gave a Kd [6] of 9.4 µM and a stoichiometry N [7] of 2.

CurK-CurL ^ACPddK-G3SG3S-ddL^KS showed a stoichiometry N [8] of 2.

CurL dd^KS (domain or fragment) was tested, and the stoichiometry N [9] was 2.

Work on CurM dd-KS-AT (domain or fragment) yielded a Kd [10] of 5.4 µM and a Kd [3] of 52 µM.

With ddH^KS-PikAIV (enzyme) the 10-deoxymethynolide (10-dml) produced, percent of wild type PikAIII/PikAIV [11] was 188%, the narbonolide (nbl) produced, percent of wild type PikAIII/PikAIV [11] was 70% and the pentaketide substrate consumed in the PikAIII/PikAIV two-module reaction [11] was 86%.

B1: CurG-CurH ^ACPddG-G3SG3S-ddH^KS (other, Moorea producens)
chain: LEAKLLDEIKQSSNQELESSIDQILESIINGGGSGGGSMLNKFTKKEQILSEKQQIKQLSPLQRAALALKKLETKLNNTLHE
For B1, the “stoichiometry N” value [12] was 2.

B2: CurL dd-KS-AT (domain or fragment, Moorea producens)
chain: MNLKQEQEKEQSLSALQRALIALKDARSKLEKYETQSKEPIAIIGMSCRFPGGVDSPESFWQLLNDGVDAISEVPSNRWNINNYYDPDPDATGKISTRDGGFLSQIDGFDAPFFCISPREVQSLDPQQRLLLEVSWEAIERANIVPDQLFNSLTGVFIGIGSSDYLNQLATSEVPQAYWGTGNAPSAATGRLSYILGLTGPNLAVETACSSSLVSLHLACQSLRQQECNLALAGGVNLLLSPETSIIFSQAKMLSPDGRCKTFDASANGYVRGEGCGVIVLKRLSDAVANGDNVLAVIRGTAINQDGASGGLTVPNGPSQVAVIRKALSNGGVDPASVSYIEAHGTGTSLGDPIEVGAIGTVFGKTHSQEQPLIVGTAKTNIGHLEVAAGIAGLMKVVLQLQHQQIAPSLHFKQPNPYINWSQLPVQVSTQLTPWQTNGKSRIAGVSSFGFSGTNAHVVIEEAPKEGNSLSATVEENGNSTVKEDTLERAVYLLTLSAKTQAALDDLVNSYQNYLKNYPELRIADICYTANTCRSHFNNRLAVVASNQQELVEKLRQHQQGEEVTGIYSIELPNNSTAPKIALLFTGQGSQYVNMGRQLYQQAPVFRKALEQCNEILLGTETFREKSLLEILYPANQEQSNSSLLDQTAYTQPCLFALEYALFKLWQSWGIQPDVVMGHSVGEYVAATVAGVFSLEEGLKLIAARGRLMQQLPAGGEMVSVIASESKVLEIFKAMSLEEKVAIAAINGPESTVISGEAEAVGAIATHLESLSIKTKQLQVSHAFHSRLMEPMLAEFEAVAKQVTYSQPQISLISNVTGQQVGSEITSAEYWVNHVRQPVRFSESMTTLHQEGYELFLEIGPKPILLGMGRQCLPEGVGVWLPSLRPGVEAWQQMLQSLGQLYMKGIKVNWSGFDQDYACHKVAIPTYPFQRESYWIDT
B2 was tested, and the Kd [3] was 4.5 µM and the “stoichiometry N” value (crystal structure) was 2.
